Assay results reported in US20240336909.

B1: Matriptase (protein)
chain: VVGGTDADEGEWPWQVSLHALGQGHICGASLISPNWLVSAAHCYIDDRGFRYSDPTQWTAFLGLHDQSQRSAPGVQERRLKRIISHPFFNDFTFDYDIALLELEKPAEYSSMVRPICLPDASHVFPAGKAIWVTGWGHTQYGGTGALILQKGEIRVINQTTCENLLPQQITPRMMCVGFLSGGVDSCQGDSGGPLSSVEADGRIFQAGVVSWGDGCAQRNKPGVYTRLPLFRDWIKENTGV
B2: Neutrophil Elastase (protein)
chain: IVGGRRARPHAWPFMVSLQLRGGHFCGATLIAPNFVMSAAHCVANVNVRAVRVVLGAHNLSRREPTRQVFAVQRIFENGYDPVNLLNDIVILQLNGSATINANVQVAQLPAQGRRLGNGVQCLAMGWGLLGRNRGIASVLQELNVTVVTSLCRRSNVCTLVRGRQAGVCFGDSGSPLVCNGLIHGIASFVRGGCASGLYPDAFAPVAQFVNWIDSIIQ
B3: MMP-2 (protein)
chain: YNFFPRKPKWDKNQITYRIIGYTPDLDPETVDDAFARAFQVWSDVTPLRFSRIHDGEADIMINFGRWEHGDGYPFDGKDGLLAHAFAPGTGVGGDSHFDDDELWTLGEGQVVRVKYGNADGEYCKFPFLFNGKEYNSCTDTGRSDGFLWCSTTYNFEKDGKYGFCPHEALFTMGGNAEGQPCKFPFRFQGTSYDSCTTEGRTDGYRWCGTTEDYDRDKKYGFCPETAMSTVGGNSEGAPCVFPFTFLGNKYESCTSAGRSDGKMWCATTANYDDDRKWGFCPDQGYSLFLVAAHEFGHAMGLEHSQDPGALMAPIYTYTKNFRLSQDDIKGIQELYGASPDIDLGTGPTPTLGPVTPEICKQDIVFDGIAQIRGEIFFFKDRFIWRTVTPRDKPMGPLLVATFWPELPEKIDAVYEAPQEEKAVFFAGNEYWIYSASTLERGYPKPLTSLGLPPDVQRVDAAFNWSKNKKTYIFAGDKFWRYNEVKKKMDPGFPKLIADAWNAIPDNLDAVVDLQGGGHSYFFKGAYYLKLENQSLKSVKFGSIKSDWLGC
B4: Cathepsin G (protein)
chain: IIGGRESRPHSRPYMAYLQIQSPAGQSRCGGFLVREDFVLTAAHCWGSNINVTLGAHNIQRRENTQQHITARRAIRHPQYNQRTIQNDIMLLQLSRRVRRNRNVNPVALPRAQEGLRPGTLCTVAGWGRVSMRRGTDTLREVQLRVQRDRQCLRIFGSYDPRRQICVGDRRERKAAFKGDSGGPLLCNNVAHGIVSYGKSSGVPPEVFTRVSSFLPWIRTTMRS

Target: AxCT mask27 EGFR EH104 L001 version 1

In order of rising Percent cleavage:
1. B4  0%
2. B2  34%
3. B1  37%
4. B3  71%

Target: AxCT mask27 EGFR EH104 L040 version 1

In order of falling Percent cleavage:
1. B1  67%
2. B3  60%
3. B2  13%
4. B4  0%

Target: AxCT mask27 EGFR EH104 L041 version 1

In order of falling Percent cleavage:
1. B1  62%
2. B3  51%
3. B2  0%
4. B4  0%

Target: AxCT mask27 EGFR EH104 L043 version 1

In order of rising Percent cleavage:
1. B4  0%
2. B2  7%
3. B3  27%
4. B1  59%

Target: AxCT mask27 EGFR EH104 L054 version 1

In order of rising Percent cleavage:
1. B4  0%
2. B2  23%
3. B1  37%
4. B3  59%

Target: AxCT mask27 EGFR EH104 L055 version 1

In order of rising Percent cleavage:
1. B4  0%
2. B2  9%
3. B3  35%
4. B1  53%

Target: AxCT mask27 EGFR EH104 L056 version 1

In order of rising Percent cleavage:
1. B4  0%
2. B2  14%
3. B1  39%
4. B3  51%

Target: AxCT mask27 EGFR EH104 L057 version 1

In order of rising Percent cleavage:
1. B4  0%
2. B2  28%
3. B1  36%
4. B3  47%

Target: AxCT mask27 EGFR EH104 L058 version 1

In order of falling Percent cleavage:
1. B3  62%
2. B1  23%
3. B2  9%
4. B4  0%

Target: AxCT mask27 EGFR EH104 L059 version 1

In order of falling Percent cleavage:
1. B3  39%
2. B1  33%
3. B2  15%
4. B4  8%

Target: AxCT mask27 EGFR EH104 L060 version 1

In order of rising Percent cleavage:
1. B4  0%
2. B2  10%
3. B3  27%
4. B1  62%

Target: AxCT mask27 EGFR EH104 L061 version 1

In order of rising Percent cleavage:
1. B4  0%
2. B2  19%
3. B1  20%
4. B3  43%

Target: AxCT mask27 EGFR EH104 L062 version 1

In order of rising Percent cleavage:
1. B4  0%
2. B2  8%
3. B1  52%
4. B3  63%

Target: AxCT mask27 EGFR EH104 L063 version 1

In order of falling Percent cleavage:
1. B1  49%
2. B3  31%
3. B2  9%
4. B4  0%

Target: AxCT mask27 EGFR EH104 L064 version 1

In order of rising Percent cleavage:
1. B1  0%
2. B4  0%
3. B2  30%
4. B3  63%

Target: AxCT mask27 EGFR EH104 L065 version 1

In order of rising Percent cleavage:
1. B1  0%
2. B4  0%
3. B2  10%
4. B3  71%

Target: AxCT mask27 EGFR EH104 L066 version 1

In order of rising Percent cleavage:
1. B1  0%
2. B4  0%
3. B2  9%
4. B3  25%

Target: AxCT mask27 EGFR EH104 L067 version 1

In order of rising Percent cleavage:
1. B1  0%
2. B4  0%
3. B2  32%
4. B3  34%

Target: AxCT mask27 EGFR EH104 L068 version 1

In order of falling Percent cleavage:
1. B3  48%
2. B2  19%
3. B1  0%
4. B4  0%

Target: AxCT mask27 EGFR EH104 L069 version 1

In order of falling Percent cleavage:
1. B3  29%
2. B2  22%
3. B4  12%
4. B1  0%

Target: AxCT mask27 EGFR EH104 L070 version 1

In order of rising Percent cleavage:
1. B4  0%
2. B2  11%
3. B1  13%
4. B3  22%

Target: AxCT mask27 EGFR EH104 L071 version 1

In order of rising Percent cleavage:
1. B1  0%
2. B4  0%
3. B2  26%
4. B3  39%

Target: AxCT mask27 EGFR EH104 L072 version 1

In order of rising Percent cleavage:
1. B1  0%
2. B4  0%
3. B2  10%
4. B3  73%

Target: AxCT mask27 EGFR EH104 L073 version 1

In order of falling Percent cleavage:
1. B2  9%
2. B1  0%
3. B4  0%

Target: AxCT mask27 EpCAM H90 L001 version 1

In order of falling Percent cleavage:
1. B3  104%
2. B2  44%
3. B1  42%
4. B4  0%

Target: AxCT mask27 EpCAM H90.2 L040 version 1

In order of rising Percent cleavage:
1. B4  0%
2. B2  9%
3. B3  90%
4. B1  93%

Target: AxCT mask27 EpCAM H90.2 L041 version 1

In order of falling Percent cleavage:
1. B1  80%
2. B2  0%
3. B4  0%

Target: AxCT mask27 EpCAM H90.2 L043 version 1

In order of rising Percent cleavage:
1. B2  0%
2. B4  0%
3. B3  39%
4. B1  79%

Target: AxCT mask27 EpCAM H90.2 L059 version 1

In order of rising Percent cleavage:
1. B4  6%
2. B2  14%
3. B1  39%
4. B3  55%

Target: AxCT mask27 EpCAM H90.2 L060 version 1

In order of rising Percent cleavage:
1. B4  0%
2. B2  7%
3. B3  40%
4. B1  92%

Target: AxCT mask27 EpCAM H90.2 L061 version 1

In order of falling Percent cleavage:
1. B3  74%
2. B1  22%
3. B2  14%
4. B4  0%

Target: AxCT mask27 EpCAM H90.2 L063 version 1

In order of falling Percent cleavage:
1. B1  68%
2. B3  36%
3. B2  0%
4. B4  0%

Target: AxCT mask27 EpCAM H90.2 L064 version 1

In order of rising Percent cleavage:
1. B1  0%
2. B4  0%
3. B2  32%
4. B3  79%

Target: AxCT mask27 EpCAM H90.2 L073 version 1

In order of falling Percent cleavage:
1. B3  17%
2. B2  10%
3. B1  0%
4. B4  0%

Target: AxCT mask27 EpCAM H90.2 L075 version 1

In order of falling Percent cleavage:
1. B4  8%
2. B1  0%
3. B2  0%
4. B3  0%

Target: AxCT mask27 EpCAM H90.2 L076 version 1

In order of falling Percent cleavage:
1. B3  35%
2. B2  6%
3. B1  0%
4. B4  0%

Target: AxCT mask27 EpCAM H90.2 NCLV

In order of falling Percent cleavage:
1. B1  0%
2. B2  0%
3. B3  0%
4. B4  0%
